Reference: publication PMC6555819, “Comprehensive study of nuclear receptor DNA binding provides a revised framework for understanding receptor specificity”

Tests used:
[1] = target: RARb:RXRa (Homo sapiens, UniProt P10826;P19793 full;full); experiment: no ligand; PBM; 270 nM : 90 nM RXRa; PBS pH 7.4, 2% milk, 0.02% Triton X-100, 1 mM DTT, BSA, 0.4 mg/ml salmon testes DNA; details: tags: His kept;His cleaved; copies: 1;1; label: surface-attached array probe
Outline: (§1)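 Binding buffer was PBS pH 7.4 with 2% milk, 0.02% Triton X-100, 1 mM DTT, 0.2 mg/mL BSA and 0.4 mg/ml salmon testes DNA. In it, ligand-free nuclear receptor dimers were incubated 1 h on custom Agilent 4×180K protein-binding microarrays carrying double-stranded probes. Antibodies against each partner (one per run) detected binding, and z-scores were calculated against random background probes after regression normalization of scanned fluorescence.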

[2] = target: FXR:RXRa (Homo sapiens, UniProt Q96RI1;P19793 full;full); experiment: as above; details: tags: His kept;His cleaved; copies: 1;1; label: surface-attached array probe
Sequence of FXR:RXRa (Q96RI1 whole entry, chain 1 of 2): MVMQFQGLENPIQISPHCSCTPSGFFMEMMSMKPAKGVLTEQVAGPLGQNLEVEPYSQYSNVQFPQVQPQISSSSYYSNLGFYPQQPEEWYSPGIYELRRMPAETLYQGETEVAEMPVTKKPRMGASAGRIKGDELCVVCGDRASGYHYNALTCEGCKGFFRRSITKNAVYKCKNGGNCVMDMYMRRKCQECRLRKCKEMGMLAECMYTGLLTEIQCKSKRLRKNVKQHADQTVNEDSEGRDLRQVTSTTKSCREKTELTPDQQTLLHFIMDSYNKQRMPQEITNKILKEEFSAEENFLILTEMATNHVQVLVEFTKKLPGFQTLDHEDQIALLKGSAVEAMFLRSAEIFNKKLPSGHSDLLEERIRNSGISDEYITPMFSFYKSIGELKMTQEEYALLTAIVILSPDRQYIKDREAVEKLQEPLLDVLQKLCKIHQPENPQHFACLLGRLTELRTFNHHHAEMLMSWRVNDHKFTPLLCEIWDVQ
Sequence of FXR:RXRa (P19793 whole entry, chain 2 of 2): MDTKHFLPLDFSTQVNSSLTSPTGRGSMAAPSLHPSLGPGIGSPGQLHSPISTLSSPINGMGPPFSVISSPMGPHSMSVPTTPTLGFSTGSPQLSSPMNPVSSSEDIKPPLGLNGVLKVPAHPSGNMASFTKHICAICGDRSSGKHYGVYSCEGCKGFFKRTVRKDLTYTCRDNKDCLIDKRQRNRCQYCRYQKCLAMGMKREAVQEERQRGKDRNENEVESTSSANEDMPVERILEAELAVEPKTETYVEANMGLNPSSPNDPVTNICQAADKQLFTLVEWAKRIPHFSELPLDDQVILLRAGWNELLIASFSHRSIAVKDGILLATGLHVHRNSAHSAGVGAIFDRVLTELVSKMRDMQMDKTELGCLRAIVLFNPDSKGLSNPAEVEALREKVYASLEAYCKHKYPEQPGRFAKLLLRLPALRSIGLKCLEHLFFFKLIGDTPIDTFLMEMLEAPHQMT
Outline: as §1

[3] = target: PPARa:RXRa (Homo sapiens, UniProt Q07869;P19793 full;full); experiment: as above; details: tags: GST kept;His cleaved; copies: 1;1; label: surface-attached array probe
Sequence of PPARa:RXRa (Q07869 whole entry, chain 1 of 2): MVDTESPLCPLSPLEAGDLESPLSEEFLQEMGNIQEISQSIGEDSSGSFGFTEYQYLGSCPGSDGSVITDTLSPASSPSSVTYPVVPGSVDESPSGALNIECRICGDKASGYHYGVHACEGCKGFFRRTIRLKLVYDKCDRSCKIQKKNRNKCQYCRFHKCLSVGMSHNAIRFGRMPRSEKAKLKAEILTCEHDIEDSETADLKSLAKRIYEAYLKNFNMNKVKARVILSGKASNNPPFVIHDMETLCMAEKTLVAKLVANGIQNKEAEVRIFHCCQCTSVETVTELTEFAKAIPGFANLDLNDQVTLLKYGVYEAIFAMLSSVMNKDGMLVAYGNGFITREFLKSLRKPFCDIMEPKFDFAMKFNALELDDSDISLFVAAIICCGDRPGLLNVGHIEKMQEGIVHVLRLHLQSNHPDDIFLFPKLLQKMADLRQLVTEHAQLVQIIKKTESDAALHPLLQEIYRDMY
Sequence of PPARa:RXRa (P19793 whole entry, chain 2 of 2): as the sequence (P19793 whole entry, chain 2 of 2) above
Outline: as §1

[4] = target: RXRa (Homo sapiens, UniProt P19793); experiment: no ligand; PBM; 180 nM; PBS pH 7.4, 2% milk, 0.02% Triton X-100, 1 mM DTT, BSA, 0.4 mg/ml salmon testes DNA; details: tags: His cleaved; chain copies: 2; label: surface-attached array probe
Sequence of RXRa (P19793 whole entry): as the sequence (P19793 whole entry, chain 2 of 2) above

[5] = target: RARg:RXRa (Homo sapiens, UniProt P13631;P19793 full;full); experiment: no ligand; PBM; 270 nM : 90 nM RXRa; PBS pH 7.4, 2% milk, 0.02% Triton X-100, 1 mM DTT, BSA, 0.4 mg/ml salmon testes DNA; details: tags: His kept;His cleaved; copies: 1;1; label: surface-attached array probe
Sequence of RARg:RXRa (P13631 whole entry, chain 1 of 2): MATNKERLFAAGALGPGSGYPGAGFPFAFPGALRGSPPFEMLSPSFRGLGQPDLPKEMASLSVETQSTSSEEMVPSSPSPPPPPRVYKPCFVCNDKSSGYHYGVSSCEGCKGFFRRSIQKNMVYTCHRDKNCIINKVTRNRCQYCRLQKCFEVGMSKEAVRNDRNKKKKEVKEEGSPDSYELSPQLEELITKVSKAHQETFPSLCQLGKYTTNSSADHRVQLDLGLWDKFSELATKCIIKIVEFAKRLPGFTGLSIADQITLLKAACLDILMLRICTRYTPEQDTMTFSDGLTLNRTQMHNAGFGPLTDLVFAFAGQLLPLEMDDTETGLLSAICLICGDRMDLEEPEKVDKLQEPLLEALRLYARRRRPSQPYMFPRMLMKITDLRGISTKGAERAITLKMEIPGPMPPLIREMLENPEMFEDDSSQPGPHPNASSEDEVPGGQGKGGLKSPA
Sequence of RARg:RXRa (P19793 whole entry, chain 2 of 2): as the sequence (P19793 whole entry, chain 2 of 2) above
Outline: as §1

Sequence of RARb:RXRa (P10826 whole entry, chain 1 of 2): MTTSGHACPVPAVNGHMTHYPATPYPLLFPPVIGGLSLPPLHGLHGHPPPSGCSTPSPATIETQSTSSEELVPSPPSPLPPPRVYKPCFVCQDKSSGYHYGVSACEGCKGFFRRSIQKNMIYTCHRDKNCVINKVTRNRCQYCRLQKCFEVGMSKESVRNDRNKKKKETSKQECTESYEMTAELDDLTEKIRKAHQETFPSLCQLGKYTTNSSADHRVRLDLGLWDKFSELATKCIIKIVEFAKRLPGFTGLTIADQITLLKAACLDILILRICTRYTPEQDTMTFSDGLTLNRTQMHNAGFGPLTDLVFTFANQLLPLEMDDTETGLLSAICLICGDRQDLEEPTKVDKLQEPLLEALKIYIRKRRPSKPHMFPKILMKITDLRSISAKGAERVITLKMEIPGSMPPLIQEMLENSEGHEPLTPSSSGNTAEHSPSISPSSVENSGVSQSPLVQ
Sequence of RARb:RXRa (P19793 whole entry, chain 2 of 2): as the sequence (P19793 whole entry, chain 2 of 2) above

| Binder | binding signal [1] | binding signal [2] | binding signal [3] | binding signal [4] | binding signal [5] |
| --- | --- | --- | --- | --- | --- |
| NRC3_random_hg19_357_o1 (dsDNA) DNA 1: GCAACAGATTTCATTGAGGTGATCTACTTCGTTTCTGCGATTGACAGCGTAGAATGAAGG DNA 2: CCTTCATTCTACGCTGTCAATCGCAGAAACGAAGTAGATCACCTCAATGAAATCTGTTGC | -0.12 PBM z-score against 500 random probes |  |  |  |  |
| NRC3_wobSeed22_DR0_G13C_o1 (dsDNA) DNA 1: GCTTACCAAGGTCAAGGTCGTTGATCCCTCTGTAGAGCGATTGACAGCGTAGAATGAAGG DNA 2: CCTTCATTCTACGCTGTCAATCGCTCTACAGAGGGATCAACGACCTTGACCTTGGTAAGC | 5.5 PBM z-score against 500 random probes | 7.79 PBM z-score against 500 random probes |  |  |  |
| NRC3_random_hg19_141_o1 (dsDNA) DNA 1: GCATTCTACCACTTCTTGCACCTAGTGCTGCTGTTCGCGATTGACAGCGTAGAATGAAGG DNA 2: CCTTCATTCTACGCTGTCAATCGCGAACAGCAGCACTAGGTGCAAGAAGTGGTAGAATGC | 0.19 PBM z-score against 500 random probes |  | 0.17 PBM z-score against 500 random probes |  |  |
| NRC3_wobSeed49_DR2_C7G_o1 (dsDNA) DNA 1: GCCAAAGTAGGTCAAGAGGTCAAAGTCCGCTTCCCGGCGATTGACAGCGTAGAATGAAGG DNA 2: CCTTCATTCTACGCTGTCAATCGCCGGGAAGCGGACTTTGACCTCTTGACCTACTTTGGC |  |  |  | 8.95 PBM z-score against 500 random probes |  |
| NRC3_wobSeed1_DR0_C7A_o1 (dsDNA) DNA 1: GCCAAAATAGGTCAAGGTCAAAGTCGGTTTGTGCCAGCGATTGACAGCGTAGAATGAAGG DNA 2: CCTTCATTCTACGCTGTCAATCGCTGGCACAAACCGACTTTGACCTTGACCTATTTTGGC | 5.5 PBM z-score against 500 random probes |  | 6.51 PBM z-score against 500 random probes |  |  |
| NRC3_wobSeed135_DR5_G10A_o1 (dsDNA) DNA 1: GCCGAACTAAGTCATTGACAGGACAGTGAATAGTAAGCGATTGACAGCGTAGAATGAAGG DNA 2: CCTTCATTCTACGCTGTCAATCGCTTACTATTCACTGTCCTGTCAATGACTTAGTTCGGC | 0.2 PBM z-score against 500 random probes |  |  |  | 0.48 PBM z-score against 500 random probes |
| NRC3_random_hg19_291_o1 (dsDNA) DNA 1: GCGAGCAAAGGGACTTCTTAGATGGTGGTGGGCAAGGCGATTGACAGCGTAGAATGAAGG DNA 2: CCTTCATTCTACGCTGTCAATCGCCTTGCCCACCACCATCTAAGAAGTCCCTTTGCTCGC | -0.49 PBM z-score against 500 random probes |  |  |  |  |
| NRC3_wobSeed23_DR0_G12T_o1 (dsDNA) DNA 1: GCGGAACGAGGTCAAGTTGATAGCAGAGTTTGATGGGCGATTGACAGCGTAGAATGAAGG DNA 2: CCTTCATTCTACGCTGTCAATCGCCCATCAAACTCTGCTATCAACTTGACCTCGTTCCGC | 5.45 PBM z-score against 500 random probes | 8.18 PBM z-score against 500 random probes |  |  |  |
| NRC3_wobSeed4_DR0_A20T_o1 (dsDNA) DNA 1: GCCCTACTGGGCCAAGGTCTTTGATCAGTCAAAGCAGCGATTGACAGCGTAGAATGAAGG DNA 2: CCTTCATTCTACGCTGTCAATCGCTGCTTTGACTGATCAAAGACCTTGGCCCAGTAGGGC | 0.33 PBM z-score against 500 random probes |  | 0.29 PBM z-score against 500 random probes |  |  |
| NRC3_random_hg19_202_o1 (dsDNA) DNA 1: GCTCTCTGGTACCAGTGAAGAAGACGTCCAGGTGGCGCGATTGACAGCGTAGAATGAAGG DNA 2: CCTTCATTCTACGCTGTCAATCGCGCCACCTGGACGTCTTCTTCACTGGTACCAGAGAGC | -0.14 PBM z-score against 500 random probes |  |  |  |  |
| NRC3_random_hg19_268_o1 (dsDNA) DNA 1: GCTGTTCTTTGGCAGTCTAGAGAATCAGAAGAGCAAGCGATTGACAGCGTAGAATGAAGG DNA 2: CCTTCATTCTACGCTGTCAATCGCTTGCTCTTCTGATTCTCTAGACTGCCAAAGAACAGC | -1.08 PBM z-score against 500 random probes |  |  |  |  |
| NRC3_random_hg19_283_o1 (dsDNA) DNA 1: GCTAGCTTACCTGGATCCACTTGGCCACTAGATTTGGCGATTGACAGCGTAGAATGAAGG DNA 2: CCTTCATTCTACGCTGTCAATCGCCAAATCTAGTGGCCAAGTGGATCCAGGTAAGCTAGC | -0.42 PBM z-score against 500 random probes |  |  |  |  |
| NRC3_random_hg19_482_o1 (dsDNA) DNA 1: GCCATCCTGTAAGACACTTCCTCTAAGAAATGGCTAGCGATTGACAGCGTAGAATGAAGG DNA 2: CCTTCATTCTACGCTGTCAATCGCTAGCCATTTCTTAGAGGAAGTGTCTTACAGGATGGC | -0.03 PBM z-score against 500 random probes |  |  |  | 0.13 PBM z-score against 500 random probes |
| NRC3_random_hg19_306_o1 (dsDNA) DNA 1: GCAGAGCCCACTTCACTTCCTCAGAAACAGCCCTCCGCGATTGACAGCGTAGAATGAAGG DNA 2: CCTTCATTCTACGCTGTCAATCGCGGAGGGCTGTTTCTGAGGAAGTGAAGTGGGCTCTGC | -0.38 PBM z-score against 500 random probes |  | -0.34 PBM z-score against 500 random probes |  |  |
| NRC3_random_hg19_320_o1 (dsDNA) DNA 1: GCCACACTTGCAGAGGAGAAAGGAGTTTGGAAAGCCGCGATTGACAGCGTAGAATGAAGG DNA 2: CCTTCATTCTACGCTGTCAATCGCGGCTTTCCAAACTCCTTTCTCCTCTGCAAGTGTGGC | -0.07 PBM z-score against 500 random probes | 0.28 PBM z-score against 500 random probes | -0.22 PBM z-score against 500 random probes |  |  |
| NRC3_random_hg19_440_o1 (dsDNA) DNA 1: GCGAAGGAGTTCTTATCTGGCCAGTTCCCATCCTGTGCGATTGACAGCGTAGAATGAAGG DNA 2: CCTTCATTCTACGCTGTCAATCGCACAGGATGGGAACTGGCCAGATAAGAACTCCTTCGC | -0.36 PBM z-score against 500 random probes |  | -0.35 PBM z-score against 500 random probes |  | -0.83 PBM z-score against 500 random probes |
| NRC3_random_hg19_437_o1 (dsDNA) DNA 1: GCCGTGTTGGCAGGTGCCTGTACTCTCAGCTACTCGGCGATTGACAGCGTAGAATGAAGG DNA 2: CCTTCATTCTACGCTGTCAATCGCCGAGTAGCTGAGAGTACAGGCACCTGCCAACACGGC | -0.44 PBM z-score against 500 random probes |  | -0.58 PBM z-score against 500 random probes |  |  |
| NRC3_wobSeed87_DR3_G10A_o1 (dsDNA) DNA 1: GCCGAACTAAGTCATCCAGGACAGTGAATACATTGAGCGATTGACAGCGTAGAATGAAGG DNA 2: CCTTCATTCTACGCTGTCAATCGCTCAATGTATTCACTGTCCTGGATGACTTAGTTCGGC | 0.37 PBM z-score against 500 random probes |  |  |  | 0.43 PBM z-score against 500 random probes |
| NRC3_wobSeed134_DR5_T8G_o1 (dsDNA) DNA 1: GCGCTGCGAGGTCAACTGATGGTCAGCTAAAGCTCGGCGATTGACAGCGTAGAATGAAGG DNA 2: CCTTCATTCTACGCTGTCAATCGCCGAGCTTTAGCTGACCATCAGTTGACCTCGCAGCGC | 5.49 PBM z-score against 500 random probes | 7.7 PBM z-score against 500 random probes |  |  | 7.43 PBM z-score against 500 random probes |
| NRC3_random_hg19_369_o1 (dsDNA) DNA 1: GCCAACCCTCTTTCATGTCTGTAAGGAGCTTACCTGGCGATTGACAGCGTAGAATGAAGG DNA 2: CCTTCATTCTACGCTGTCAATCGCCAGGTAAGCTCCTTACAGACATGAAAGAGGGTTGGC | 0.12 PBM z-score against 500 random probes | 0.38 PBM z-score against 500 random probes |  |  | -0.32 PBM z-score against 500 random probes |
| NRC3_random_hg19_411_o1 (dsDNA) DNA 1: GCATTGAGCAGGTGTTGATTACAAATGAGATGTTTCGCGATTGACAGCGTAGAATGAAGG DNA 2: CCTTCATTCTACGCTGTCAATCGCGAAACATCTCATTTGTAATCAACACCTGCTCAATGC | 0 PBM z-score against 500 random probes |  | 0.03 PBM z-score against 500 random probes |  |  |
| NRC3_random_hg19_72_o1 (dsDNA) DNA 1: GCTCCCAACTAGCTGGAACTACAGGCACCTGCCACCGCGATTGACAGCGTAGAATGAAGG DNA 2: CCTTCATTCTACGCTGTCAATCGCGGTGGCAGGTGCCTGTAGTTCCAGCTAGTTGGGAGC | -0.32 PBM z-score against 500 random probes |  | 0.23 PBM z-score against 500 random probes |  |  |
| NRC3_random_hg19_434_o1 (dsDNA) DNA 1: GCCACATGAAAGCTGACAACAGAAGCACTCCAACACGCGATTGACAGCGTAGAATGAAGG DNA 2: CCTTCATTCTACGCTGTCAATCGCGTGTTGGAGTGCTTCTGTTGTCAGCTTTCATGTGGC | -0.24 PBM z-score against 500 random probes |  |  |  |  |
| NRC3_random_hg19_52_o1 (dsDNA) DNA 1: GCCCAGGAGCAGTGGCTCACGCCTGTAATCCCAGCAGCGATTGACAGCGTAGAATGAAGG DNA 2: CCTTCATTCTACGCTGTCAATCGCTGCTGGGATTACAGGCGTGAGCCACTGCTCCTGGGC | -0.55 PBM z-score against 500 random probes |  | -0.74 PBM z-score against 500 random probes |  |  |
| NRC3_wobSeed13_DR0_A15C_o1 (dsDNA) DNA 1: GCCGTCCAAGGTCACGGTCAGTGAAAGAGACTCGAAGCGATTGACAGCGTAGAATGAAGG DNA 2: CCTTCATTCTACGCTGTCAATCGCTTCGAGTCTCTTTCACTGACCGTGACCTTGGACGGC | 5.97 PBM z-score against 500 random probes | 8.3 PBM z-score against 500 random probes |  |  |  |
| NRC3_wobSeed69_DR2_G10T_o1 (dsDNA) DNA 1: GCAGTCAAATTTCACTAGGTAACGTAAGATTCAGCTGCGATTGACAGCGTAGAATGAAGG DNA 2: CCTTCATTCTACGCTGTCAATCGCAGCTGAATCTTACGTTACCTAGTGAAATTTGACTGC | 0.27 PBM z-score against 500 random probes |  | 0.35 PBM z-score against 500 random probes |  |  |
| NRC3_wobSeed29_DR1_T22C_o1 (dsDNA) DNA 1: GCGCTTACGGGTCAAAGGTTACAGCATGAATAGAATGCGATTGACAGCGTAGAATGAAGG DNA 2: CCTTCATTCTACGCTGTCAATCGCATTCTATTCATGCTGTAACCTTTGACCCGTAAGCGC |  |  |  | 9.84 PBM z-score against 500 random probes |  |
